Target: T1, purified human alpha globin (human, UniProt P69905 1-142, biotinylated using EZ-Link NHS-PEG4 Biotinylation Kit)
T1 construct: hemoglobin subunit alpha, human; called full-length alpha globin in the discussion; Immobilised through biotin on streptavidin biosensors; also called full-length alpha globin; source: purified
Assay: BLI; Octet RED96; biotinylated alpha globin immobilised on streptavidin biosensors; analyte in solution, 120 s association, 120 s dissociation in assay buffer
Details: both partners purified

T1 sequence (P69905 whole entry): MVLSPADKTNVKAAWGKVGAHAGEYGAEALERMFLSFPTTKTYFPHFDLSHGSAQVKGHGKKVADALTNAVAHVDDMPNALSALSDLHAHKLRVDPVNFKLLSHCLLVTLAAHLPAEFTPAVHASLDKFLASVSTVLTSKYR

Kd: 109 nM
B1: alpha hemoglobin stabilizing protein (natural protein, UniProt Q9NZD4 1-102, looked up)
chain: MALLKANKDLISAGLKEFSVLLNQQVFNDPLVSEEDMVTVVEDWMNFYINYYRQQVTGEPQERDKALQELRQELNTLANPFLAKYRDFLKSHELPSHPPPSS
notes: alpha hemoglobin stabilizing protein; also called AHSP

Reference: article doi:10.1101/2021.04.06.21255004, “Hemoglobin Interacts with Endothelial Nitric Oxide Synthase to Regulate Vasodilation in Human Resistance Arteries” (medRxiv, 2021)
